Results: publication doi:10.1101/187336

Biological target: fHbp^V1.1:PorA^267/P1.16 (Neisseria meningitidis (MC58 genomic DNA) | Neisseria meningitidis) (UniProt Q9JXV4)
Experiment: SPR

human complement FH domains 6 and 7 (from UniProt P08603 321-443) (domain or fragment)
fold reduction of CFH binding: 8 fold
